Consider one variant from IntAct's records for PubMed 25126958.

To fix the notation:
B1: Cell division control protein 45 (Saccharomyces cerevisiae), Q08032 (parent)
chain: MYYGISQFSEAYNKILRNSSSHSSCQLVIFVSCLNIDALCATKMLSLLFKKQLVQSQIVPIFGYSELRRHYSQLDDNINSLLLVGFGGVIDLEAFLEIDPQEYVIDTDEKSGEQSFRRDIYVLDAHRPWNLDNIFGSQIIQCFDDGTVDDTLGEQKEAYYKLLELDEESGDDELSGDENDNNGGDDEATDADEVTDEDEEDEDETISNKRGNSSIGPNDLSKRKQRKKQIHEYEGVLEEYYSQGTTVVNSISAQIYSLLSAIGETNLSNLWLNILGTTSLDIAYAQVYNRLYPLLQDEVKRLTPSSRNSVKTPDTLTLNIQPDYYLFLLRHSSLYDSFYYSNYVNAKLSLWNENGKKRLHKMFARMGIPLSTAQETWLYMDHSIKRELGIIFDKNLDRYGLQDIIRDGFVRTLGYRGSISASEFVEALTALLEVGNSTDKDSVKINNDNNDDTDGEEEEDNSAQKLTNLRKRWVSNFWLSWDALDDRKVELLNRGIQLAQDLQRAIFNTGVAILEKKLIKHLRIYRLCVLQDGPDLDLYRNPLTLLRLGNWLIECCAESEDKQLLPMVLASIDENTDTYLVAGLTPRYPRGLDTIHTKKPILNNFSMAFQQITAETDAKVRIDNFESSIIEIRREDLSPFLEKLTLSGLL
partner: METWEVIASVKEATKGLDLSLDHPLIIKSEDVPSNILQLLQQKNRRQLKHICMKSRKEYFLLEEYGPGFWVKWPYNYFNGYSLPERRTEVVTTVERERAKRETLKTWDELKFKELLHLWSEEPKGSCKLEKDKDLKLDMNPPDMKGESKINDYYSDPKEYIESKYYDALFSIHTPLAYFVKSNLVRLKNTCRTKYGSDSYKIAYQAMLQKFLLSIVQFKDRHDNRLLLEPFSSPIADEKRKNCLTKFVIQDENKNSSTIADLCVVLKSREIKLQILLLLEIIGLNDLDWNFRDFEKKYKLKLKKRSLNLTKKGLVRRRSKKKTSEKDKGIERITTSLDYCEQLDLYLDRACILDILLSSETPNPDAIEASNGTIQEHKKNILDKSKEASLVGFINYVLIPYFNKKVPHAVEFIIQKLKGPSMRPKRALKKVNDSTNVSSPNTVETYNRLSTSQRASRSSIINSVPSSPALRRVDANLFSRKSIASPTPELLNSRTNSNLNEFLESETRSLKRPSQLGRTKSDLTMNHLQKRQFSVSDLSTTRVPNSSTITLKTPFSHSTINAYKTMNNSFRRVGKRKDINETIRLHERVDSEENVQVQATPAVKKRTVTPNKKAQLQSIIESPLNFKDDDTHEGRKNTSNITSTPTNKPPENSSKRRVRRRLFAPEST

This test covers variants of B1. The following applies: with sld3_yeast SLD3, P53135.
As to D91N;D124N;D149N;D150N, the “effect of a mutation on the interaction” value was “disrupting interaction strength”.
